{"source": "paper PMC11886506", "experiment_in_all_cases": "EMSA", "key": {"[1]": {"molecular_target": "T1, MdEIL1 DNA-binding domain (His-MBP fusion) (UniProt D5L144 1-311)", "T1 sequence": "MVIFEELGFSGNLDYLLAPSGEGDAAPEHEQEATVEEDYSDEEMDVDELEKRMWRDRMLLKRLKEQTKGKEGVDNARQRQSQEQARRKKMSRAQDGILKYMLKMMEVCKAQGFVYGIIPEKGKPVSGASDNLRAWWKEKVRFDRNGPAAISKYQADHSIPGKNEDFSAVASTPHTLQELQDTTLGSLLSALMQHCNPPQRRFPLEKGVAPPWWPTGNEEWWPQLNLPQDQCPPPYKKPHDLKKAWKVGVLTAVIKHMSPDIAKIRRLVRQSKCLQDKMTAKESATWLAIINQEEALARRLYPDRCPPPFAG"}, "[2]": {"molecular_target": "T2, MdEIL3 DNA-binding domain (His-MBP fusion) (UniProt D5L146 1-311)", "T2 sequence": "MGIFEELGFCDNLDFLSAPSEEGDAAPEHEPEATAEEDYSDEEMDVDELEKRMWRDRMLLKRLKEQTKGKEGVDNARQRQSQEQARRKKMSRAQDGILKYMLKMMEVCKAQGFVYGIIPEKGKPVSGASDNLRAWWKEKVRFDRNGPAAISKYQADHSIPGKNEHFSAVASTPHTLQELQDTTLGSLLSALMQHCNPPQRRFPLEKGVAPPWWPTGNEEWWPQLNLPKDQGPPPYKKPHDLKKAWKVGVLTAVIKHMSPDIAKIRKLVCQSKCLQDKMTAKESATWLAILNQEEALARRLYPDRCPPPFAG"}, "[3]": {"molecular_target": "T3, MdEIL2 DNA-binding domain (His-MBP fusion) (UniProt D5L145 1-311)", "T3 sequence": "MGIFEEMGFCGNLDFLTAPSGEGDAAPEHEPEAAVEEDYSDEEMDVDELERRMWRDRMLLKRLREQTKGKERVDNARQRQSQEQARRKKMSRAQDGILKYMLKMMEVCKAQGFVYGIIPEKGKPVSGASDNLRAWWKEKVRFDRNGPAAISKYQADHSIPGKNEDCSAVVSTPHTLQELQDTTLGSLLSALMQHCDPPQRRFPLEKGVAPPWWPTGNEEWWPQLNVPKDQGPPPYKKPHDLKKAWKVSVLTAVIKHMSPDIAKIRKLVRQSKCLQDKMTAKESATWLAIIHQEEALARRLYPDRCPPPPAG"}, "His-MBP": {"molecular_target": "His-MBP (UniProt P0AEX9 27-396)"}}}
{"binder": "proMdAFS1 MUT probe (dsDNA) DNA 1: CCCACCCCTCCGGTAGCCTCTTTGATATCCCA DNA 2: TGGGATATCAAAGAGGCTACCGGAGGGGTGGG", "values": [{"measurement": "binding result", "setting": "[1]", "result": "no binding"}, {"measurement": "binding result", "setting": "[2]", "result": "no binding"}, {"measurement": "binding result", "setting": "[3]", "result": "no binding"}]}
{"binder": "proMdAFS1 WT probe (dsDNA) DNA 1: CCCACCCCTCCGGAGATTCATTTGATATCCCA DNA 2: TGGGATATCAAATGAATCTCCGGAGGGGTGGG", "values": [{"measurement": "binding result", "setting": "[1]", "result": "binds"}, {"measurement": "binding result", "setting": "[2]", "result": "binds"}, {"measurement": "binding result", "setting": "[3]", "result": "binds"}, {"measurement": "binding result", "setting": "His-MBP", "result": "no binding"}]}
